Article PMC9482650, “Quantitative fragmentomics allow affinity mapping of interactomes” (Nature Communications, 2022)

Biological target: GRIP2_3, Q9C0E4
Test: holdup assay
Design: key: below the threshold = too weak to quantify, mostly under pKd 3.1 to 4
Conditions: plain residues with an end cap or a label only (N-terminal biotin on a linker: ado-ado)

Sequence of GRIP2_3, Q9C0E4 (Q9C0E4 238-339): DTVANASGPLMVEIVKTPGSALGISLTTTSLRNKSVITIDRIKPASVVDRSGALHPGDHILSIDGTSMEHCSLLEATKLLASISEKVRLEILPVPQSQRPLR

| Binder | pKd |
| --- | --- |
| DDENIRTSDV [PLEKHA2, Q9HB19] | below the threshold |
| PEYLGLDVPV [ERBB2, P04626] | below the threshold |

Biological target: ARHGEF12, Q9NZN5-2
Test: holdup assay
Design: key: below the threshold = too weak to quantify, mostly under pKd 3.1 to 4
Conditions: plain residues with an end cap or a label only (N-terminal biotin on a linker: ado-ado)

Sequence of ARHGEF12, Q9NZN5-2 (Q9NZN5 other isoform, or with tags, fused parts or gaps): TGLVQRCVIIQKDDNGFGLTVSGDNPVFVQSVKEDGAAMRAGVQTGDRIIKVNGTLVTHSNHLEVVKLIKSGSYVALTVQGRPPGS

| Binder | pKd |
| --- | --- |
| DDENIRTSDV [PLEKHA2, Q9HB19] | 4.25 |
| PEYLGLDVPV [ERBB2, P04626] | below the threshold |

Biological target: SCRIB_1, Q14160
Test: holdup assay
Design: key: below the threshold = too weak to quantify, mostly under pKd 3.1 to 4
Conditions: plain residues with an end cap or a label only (N-terminal biotin on a linker: ado-ado)

Sequence of SCRIB_1, Q14160 (Q14160 718-814): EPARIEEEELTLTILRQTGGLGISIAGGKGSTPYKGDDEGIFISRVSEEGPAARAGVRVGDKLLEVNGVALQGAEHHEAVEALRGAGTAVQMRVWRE

| Binder | pKd |
| --- | --- |
| DDENIRTSDV [PLEKHA2, Q9HB19] | 3.75 |
| PEYLGLDVPV [ERBB2, P04626] | below the threshold |

Biological target: SCRIB_3, Q14160
Test: holdup assay
Design: key: below the threshold = too weak to quantify, mostly under pKd 3.1 to 4
Conditions: plain residues with an end cap or a label only (N-terminal biotin on a linker: ado-ado)

Sequence of SCRIB_3, Q14160 (Q14160 999-1103): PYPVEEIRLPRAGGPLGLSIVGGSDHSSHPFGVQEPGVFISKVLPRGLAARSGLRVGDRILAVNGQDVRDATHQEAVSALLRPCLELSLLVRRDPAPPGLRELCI

| Binder | pKd |
| --- | --- |
| DDENIRTSDV [PLEKHA2, Q9HB19] | 3.99 |
| PEYLGLDVPV [ERBB2, P04626] | below the threshold |

Biological target: T1, PDZD7_3, Q9H5P4
T1 sequence (Q9H5P4 857-944, limits assumed, looked up): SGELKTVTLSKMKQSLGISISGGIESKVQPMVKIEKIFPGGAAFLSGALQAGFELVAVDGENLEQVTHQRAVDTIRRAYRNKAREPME
Test: holdup assay
Design: key: below the threshold = too weak to quantify, mostly under pKd 3.1 to 4
Conditions: plain residues with an end cap or a label only (N-terminal biotin on a linker: ado-ado)

| Binder | pKd |
| --- | --- |
| DDENIRTSDV [PLEKHA2, Q9HB19] | 4.73 |
| PEYLGLDVPV [ERBB2, P04626] | below the threshold |

Biological target: T2, SNTG1, Q9NSN8
T2 sequence (Q9NSN8 52-150, limits assumed, looked up): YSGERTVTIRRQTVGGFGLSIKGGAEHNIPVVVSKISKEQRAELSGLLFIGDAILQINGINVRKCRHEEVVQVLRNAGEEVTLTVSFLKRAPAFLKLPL
Test: holdup assay
Design: key: below the threshold = too weak to quantify, mostly under pKd 3.1 to 4
Conditions: plain residues with an end cap or a label only (N-terminal biotin on a linker: ado-ado)

| Binder | pKd |
| --- | --- |
| DDENIRTSDV [PLEKHA2, Q9HB19] | 4.88 |
| PEYLGLDVPV [ERBB2, P04626] | 3.55 |

Biological target: NHERF4_2, Q86UT5
Test: holdup assay
Design: key: below the threshold = too weak to quantify, mostly under pKd 3.1 to 4
Conditions: plain residues with an end cap or a label only (N-terminal biotin on a linker: ado-ado)

Sequence of NHERF4_2, Q86UT5 (Q86UT5 220-308): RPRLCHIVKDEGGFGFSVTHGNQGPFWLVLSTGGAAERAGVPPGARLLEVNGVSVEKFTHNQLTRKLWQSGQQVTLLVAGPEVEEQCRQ

| Binder | pKd |
| --- | --- |
| DDENIRTSDV [PLEKHA2, Q9HB19] | below the threshold |
| PEYLGLDVPV [ERBB2, P04626] | below the threshold |

Biological target: GORASP1, Q9BQQ3
Test: holdup assay
Design: key: below the threshold = too weak to quantify, mostly under pKd 3.1 to 4
Conditions: plain residues with an end cap or a label only (N-terminal biotin on a linker: ado-ado)

Sequence of GORASP1, Q9BQQ3 (Q9BQQ3 1-208): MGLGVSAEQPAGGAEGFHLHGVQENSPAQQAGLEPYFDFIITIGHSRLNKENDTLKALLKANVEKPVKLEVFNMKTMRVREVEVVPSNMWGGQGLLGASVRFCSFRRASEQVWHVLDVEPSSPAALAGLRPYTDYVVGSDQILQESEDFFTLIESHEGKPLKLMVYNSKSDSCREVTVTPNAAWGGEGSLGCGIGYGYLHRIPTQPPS

| Binder | pKd |
| --- | --- |
| DDENIRTSDV [PLEKHA2, Q9HB19] | below the threshold |
| PEYLGLDVPV [ERBB2, P04626] | below the threshold |

Biological target: TJP1_2, Q07157
Test: holdup assay
Design: key: below the threshold = too weak to quantify, mostly under pKd 3.1 to 4
Conditions: plain residues with an end cap or a label only (N-terminal biotin on a linker: ado-ado)

Sequence of TJP1_2, Q07157 (Q07157 181-274): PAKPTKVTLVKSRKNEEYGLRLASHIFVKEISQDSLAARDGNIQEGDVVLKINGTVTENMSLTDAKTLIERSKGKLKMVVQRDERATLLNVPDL

| Binder | pKd |
| --- | --- |
| DDENIRTSDV [PLEKHA2, Q9HB19] | below the threshold |
| PEYLGLDVPV [ERBB2, P04626] | 3.65 |

Biological target: CASK, O14936
Test: holdup assay
Design: key: below the threshold = too weak to quantify, mostly under pKd 3.1 to 4
Conditions: plain residues with an end cap or a label only (N-terminal biotin on a linker: ado-ado)

Sequence of CASK, O14936 (O14936 487-570): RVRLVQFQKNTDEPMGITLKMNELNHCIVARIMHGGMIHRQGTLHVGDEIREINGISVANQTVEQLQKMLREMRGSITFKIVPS

| Binder | pKd |
| --- | --- |
| DDENIRTSDV [PLEKHA2, Q9HB19] | below the threshold |
| PEYLGLDVPV [ERBB2, P04626] | below the threshold |

Biological target: T3, PARD3B_1, Q8TEW8
T3 sequence (Q8TEW8 196-299, limits assumed, looked up): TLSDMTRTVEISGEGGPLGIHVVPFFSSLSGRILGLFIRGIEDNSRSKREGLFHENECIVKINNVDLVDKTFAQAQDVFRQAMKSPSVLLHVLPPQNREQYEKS
Test: holdup assay
Design: key: below the threshold = too weak to quantify, mostly under pKd 3.1 to 4
Conditions: plain residues with an end cap or a label only (N-terminal biotin on a linker: ado-ado)

| Binder | pKd |
| --- | --- |
| DDENIRTSDV [PLEKHA2, Q9HB19] | below the threshold |
| PEYLGLDVPV [ERBB2, P04626] | below the threshold |

Biological target: PARD3_3, Q8TEW0
Test: holdup assay
Design: key: below the threshold = too weak to quantify, mostly under pKd 3.1 to 4
Conditions: plain residues with an end cap or a label only (N-terminal biotin on a linker: ado-ado)

Sequence of PARD3_3, Q8TEW0 (Q8TEW0 582-685): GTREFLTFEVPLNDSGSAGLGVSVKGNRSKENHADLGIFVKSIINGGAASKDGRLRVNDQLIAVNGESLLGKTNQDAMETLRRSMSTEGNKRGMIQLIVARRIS

| Binder | pKd |
| --- | --- |
| DDENIRTSDV [PLEKHA2, Q9HB19] | below the threshold |
| PEYLGLDVPV [ERBB2, P04626] | 3.52 |

Biological target: T4, HTRA3, P83110
T4 sequence (P83110 354-453, limits assumed, looked up): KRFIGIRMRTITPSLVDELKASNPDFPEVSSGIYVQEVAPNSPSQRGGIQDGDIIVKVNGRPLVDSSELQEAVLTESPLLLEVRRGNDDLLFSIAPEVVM
Test: holdup assay
Design: key: below the threshold = too weak to quantify, mostly under pKd 3.1 to 4
Conditions: plain residues with an end cap or a label only (N-terminal biotin on a linker: ado-ado)

| Binder | pKd |
| --- | --- |
| DDENIRTSDV [PLEKHA2, Q9HB19] | below the threshold |
| PEYLGLDVPV [ERBB2, P04626] | below the threshold |

Biological target: GRIP2_7, Q9C0E4
Test: holdup assay
Design: key: below the threshold = too weak to quantify, mostly under pKd 3.1 to 4
Conditions: plain residues with an end cap or a label only (N-terminal biotin on a linker: ado-ado)

Sequence of GRIP2_7, Q9C0E4 (Q9C0E4 934-1023): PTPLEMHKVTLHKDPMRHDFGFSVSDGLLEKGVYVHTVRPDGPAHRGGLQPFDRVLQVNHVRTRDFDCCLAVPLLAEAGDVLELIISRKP

| Binder | pKd |
| --- | --- |
| DDENIRTSDV [PLEKHA2, Q9HB19] | below the threshold |
| PEYLGLDVPV [ERBB2, P04626] | below the threshold |

Biological target: T5, DVL3, Q92997
T5 sequence (Q92997 244-331, limits assumed, looked up): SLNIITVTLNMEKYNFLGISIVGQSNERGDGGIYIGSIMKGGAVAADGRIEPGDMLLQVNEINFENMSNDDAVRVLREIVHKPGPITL
Test: holdup assay
Design: key: below the threshold = too weak to quantify, mostly under pKd 3.1 to 4
Conditions: plain residues with an end cap or a label only (N-terminal biotin on a linker: ado-ado)

| Binder | pKd |
| --- | --- |
| DDENIRTSDV [PLEKHA2, Q9HB19] | below the threshold |
| PEYLGLDVPV [ERBB2, P04626] | below the threshold |

Biological target: T6, TJP3_3, O95049
T6 sequence (O95049 375-456, limits assumed, looked up): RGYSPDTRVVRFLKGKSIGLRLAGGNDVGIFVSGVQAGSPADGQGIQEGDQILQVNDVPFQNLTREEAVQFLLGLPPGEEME
Test: holdup assay
Design: key: below the threshold = too weak to quantify, mostly under pKd 3.1 to 4
Conditions: plain residues with an end cap or a label only (N-terminal biotin on a linker: ado-ado)

| Binder | pKd |
| --- | --- |
| DDENIRTSDV [PLEKHA2, Q9HB19] | below the threshold |
| PEYLGLDVPV [ERBB2, P04626] | below the threshold |

Biological target: T7, NHERF3_3, Q5T2W1
T7 sequence (Q5T2W1 238-333, limits assumed, looked up): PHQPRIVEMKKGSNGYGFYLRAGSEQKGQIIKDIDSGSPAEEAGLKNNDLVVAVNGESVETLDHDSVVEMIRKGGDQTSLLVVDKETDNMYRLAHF
Test: holdup assay
Design: key: below the threshold = too weak to quantify, mostly under pKd 3.1 to 4
Conditions: plain residues with an end cap or a label only (N-terminal biotin on a linker: ado-ado)

| Binder | pKd |
| --- | --- |
| DDENIRTSDV [PLEKHA2, Q9HB19] | below the threshold |
| PEYLGLDVPV [ERBB2, P04626] | below the threshold |

Biological target: TJP2_1, Q9UDY2
Test: holdup assay
Design: key: below the threshold = too weak to quantify, mostly under pKd 3.1 to 4
Conditions: plain residues with an end cap or a label only (N-terminal biotin on a linker: ado-ado)

Sequence of TJP2_1, Q9UDY2 (Q9UDY2 24-128): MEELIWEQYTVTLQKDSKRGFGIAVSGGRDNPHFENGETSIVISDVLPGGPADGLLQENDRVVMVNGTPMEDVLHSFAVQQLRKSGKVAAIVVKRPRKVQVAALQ

| Binder | pKd |
| --- | --- |
| DDENIRTSDV [PLEKHA2, Q9HB19] | below the threshold |
| PEYLGLDVPV [ERBB2, P04626] | below the threshold |

Biological target: MAGI1_2, Q96QZ7
Test: holdup assay
Design: key: below the threshold = too weak to quantify, mostly under pKd 3.1 to 4
Conditions: plain residues with an end cap or a label only (N-terminal biotin on a linker: ado-ado)

Sequence of MAGI1_2, Q96QZ7 (Q96QZ7 456-580): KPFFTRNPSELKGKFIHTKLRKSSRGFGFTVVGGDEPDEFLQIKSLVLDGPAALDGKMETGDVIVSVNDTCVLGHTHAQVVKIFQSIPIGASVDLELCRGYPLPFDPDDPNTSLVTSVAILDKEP

| Binder | pKd |
| --- | --- |
| DDENIRTSDV [PLEKHA2, Q9HB19] | below the threshold |
| PEYLGLDVPV [ERBB2, P04626] | below the threshold |

Biological target: LIMK2, P53671
Test: holdup assay
Design: key: below the threshold = too weak to quantify, mostly under pKd 3.1 to 4
Conditions: plain residues with an end cap or a label only (N-terminal biotin on a linker: ado-ado)

Sequence of LIMK2, P53671 (P53671 143-248): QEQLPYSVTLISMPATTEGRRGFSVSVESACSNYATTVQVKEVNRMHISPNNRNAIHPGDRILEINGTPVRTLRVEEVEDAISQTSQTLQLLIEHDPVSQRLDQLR

| Binder | pKd |
| --- | --- |
| DDENIRTSDV [PLEKHA2, Q9HB19] | below the threshold |
| PEYLGLDVPV [ERBB2, P04626] | below the threshold |

Biological target: T8, DFNB31_2, Q9P202
T8 sequence (Q9P202 274-371, limits assumed, looked up): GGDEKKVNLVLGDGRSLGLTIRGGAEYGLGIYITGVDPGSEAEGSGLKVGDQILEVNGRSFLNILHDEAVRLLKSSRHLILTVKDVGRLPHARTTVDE
Test: holdup assay
Design: key: below the threshold = too weak to quantify, mostly under pKd 3.1 to 4
Conditions: plain residues with an end cap or a label only (N-terminal biotin on a linker: ado-ado)

| Binder | pKd |
| --- | --- |
| DDENIRTSDV [PLEKHA2, Q9HB19] | below the threshold |
| PEYLGLDVPV [ERBB2, P04626] | below the threshold |

Biological target: DLG2_2, Q15700
Test: holdup assay
Design: key: below the threshold = too weak to quantify, mostly under pKd 3.1 to 4
Conditions: plain residues with an end cap or a label only (N-terminal biotin on a linker: ado-ado)

Sequence of DLG2_2, Q15700 (Q15700 189-283): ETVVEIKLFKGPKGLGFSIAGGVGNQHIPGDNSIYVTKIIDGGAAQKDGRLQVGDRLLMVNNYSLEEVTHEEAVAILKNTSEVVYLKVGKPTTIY

| Binder | pKd |
| --- | --- |
| DDENIRTSDV [PLEKHA2, Q9HB19] | 4.04 |
| PEYLGLDVPV [ERBB2, P04626] | below the threshold |

Biological target: T9, APBA3_1, O96018
T9 sequence (O96018 389-490, limits assumed, looked up): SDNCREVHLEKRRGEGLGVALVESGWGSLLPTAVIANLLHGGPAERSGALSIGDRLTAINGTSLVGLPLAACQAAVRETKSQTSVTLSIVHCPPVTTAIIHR
Test: holdup assay
Design: key: below the threshold = too weak to quantify, mostly under pKd 3.1 to 4
Conditions: plain residues with an end cap or a label only (N-terminal biotin on a linker: ado-ado)

| Binder | pKd |
| --- | --- |
| DDENIRTSDV [PLEKHA2, Q9HB19] | below the threshold |
| PEYLGLDVPV [ERBB2, P04626] | below the threshold |

Biological target: T10, SIPA1L2, Q9P2F8
T10 sequence (Q9P2F8 945-1036, limits assumed, looked up): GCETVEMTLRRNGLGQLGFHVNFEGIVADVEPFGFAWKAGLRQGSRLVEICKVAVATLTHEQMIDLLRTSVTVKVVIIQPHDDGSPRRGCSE
Test: holdup assay
Design: key: below the threshold = too weak to quantify, mostly under pKd 3.1 to 4
Conditions: plain residues with an end cap or a label only (N-terminal biotin on a linker: ado-ado)

| Binder | pKd |
| --- | --- |
| DDENIRTSDV [PLEKHA2, Q9HB19] | below the threshold |
| PEYLGLDVPV [ERBB2, P04626] | below the threshold |

Biological target: T11, SNTA1, Q13424
T11 sequence (Q13424 82-180, limits assumed, looked up): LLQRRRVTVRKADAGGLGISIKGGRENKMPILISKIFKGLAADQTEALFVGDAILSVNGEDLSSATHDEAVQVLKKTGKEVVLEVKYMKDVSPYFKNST
Test: holdup assay
Design: key: below the threshold = too weak to quantify, mostly under pKd 3.1 to 4
Conditions: plain residues with an end cap or a label only (N-terminal biotin on a linker: ado-ado)

| Binder | pKd |
| --- | --- |
| DDENIRTSDV [PLEKHA2, Q9HB19] | 5.11 |
| PEYLGLDVPV [ERBB2, P04626] | 3.61 |

Biological target: T12, APBA2_1, Q99767
T12 sequence (Q99767 563-664, limits assumed, looked up): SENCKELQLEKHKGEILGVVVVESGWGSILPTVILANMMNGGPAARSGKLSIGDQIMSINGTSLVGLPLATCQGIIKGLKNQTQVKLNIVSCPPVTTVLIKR
Test: holdup assay
Design: key: below the threshold = too weak to quantify, mostly under pKd 3.1 to 4
Conditions: plain residues with an end cap or a label only (N-terminal biotin on a linker: ado-ado)

| Binder | pKd |
| --- | --- |
| DDENIRTSDV [PLEKHA2, Q9HB19] | below the threshold |
| PEYLGLDVPV [ERBB2, P04626] | below the threshold |
